# Assays:
# [1] = molecular target: T1, Recombinant Human TACE/ADAM17 (Homo sapiens, UniProt P78536); experiment: Cell free TACE/ADAM17 activity; type: biochemical
# T1 construct: purchased R&D Systems 930-ADB-010
# Procedure: TACE activity and its inhibition by human AAT (AAT) was performed with Recombinant Human TACE/ADAM17 kit (930-ADB and ES003, R&D Systems) in black 96-well immuno plates (437111, ThermoFisher Scientific). The enzymatic activity of TACE/ADAM17 was measured by mixing 0.005 μg of rhTACE with 10 μM of Mca-PLAQAV-Dpa-RSSSR-NH2 fluorogenic peptide substrate III in assay buffer (25 mM Tris, 2.5 μM ZnCl2, 0.005% Brij-35 (w/v), pH 9.0) to a final volume of 100 μl. AAT (Sigma Aldrich, batch A6150) was resuspended in water (vehicle), control TACE/ADAM17 activity was assessed in presence of the vehicle (amount used for AAT 100 μM). AAT was added at different concentration (0, 6.25, 12.5, 25, 50 and 100 μM) to assess its dose-dependent inhibition of TACE/ADAM17. All conditions were performed in triplicates. Activity was measured as relative fluorescent unit (RFU) in a kinetic mode (9 time points over 5 min) with a SpectraMax iD3 Microplate Reader (low PMT gain, is exposition, top read at 1 mm, wavelength: excitation 320 nm, emission 405 nm). Bar graph as percentage of control activity was obtained by averaging the values obtained over the 5 min for each of the condition.
# TACE activity is assessed according to the manufacturer's instruction (Recombinant Human TACE/ADAM17 kit, 930-ADB, R&D Systems) in kinetic mode, without or with different AAT concentration. All conditions were done in triplicates and are shown as mean±SD (FIGS. 5A, 5B and 5C).
# ADAM-17 activity and its inhibition by human peptide 8 was measured with Recombinant Human ADAM-17 kit (Recombinant Human TACE/ADAM17 Protein, CF: 930-ADB-010 and Mca-PLAQAV-Dpa-RSSSR-NH2 Fluorogenic Peptide Substrate:ES003; R&D Systems) in black 96-well immunoplates (437111; Thermo Fisher Scientific). The enzymatic activity of ADAM-17 was measured by mixing 0.005 μg of rhADAM-17 with 10 μM of Mca-PLAQAV-Dpa-RSSSR-NH2 fluorogenic peptide substrate III in assay buffer (25 mM Tris, 2.5 μM ZnCl2, 0.005% Brij-35 (w/v), pH 9.0) to a final volume of 100 μL. Peptide 8 (Syngene) was dissolved in DMSO and diluted to the desired concentration in assay buffer. Control ADAM-17 activity was assessed in the presence of the assay buffer. […] All conditions were performed in triplicate. Activity was measured as relative fluorescent units (RFU) in endpoint mode (5 min) with a SpectraMax iD3 Microplate Reader (automatic PMT gain, wavelengths: excitation 320 nm, emission 405 nm).
# [2] = molecular target: Recombinant Human TACE/ADAM17 Protein (R&D Systems 930-ADB) (human) (UniProt P78536); experiment: cell-based or functional assay
# Recombinant Human TACE/ADAM17 Protein (R&D Systems 930-ADB) (human), sequence (P78536 215-671 limits assumed): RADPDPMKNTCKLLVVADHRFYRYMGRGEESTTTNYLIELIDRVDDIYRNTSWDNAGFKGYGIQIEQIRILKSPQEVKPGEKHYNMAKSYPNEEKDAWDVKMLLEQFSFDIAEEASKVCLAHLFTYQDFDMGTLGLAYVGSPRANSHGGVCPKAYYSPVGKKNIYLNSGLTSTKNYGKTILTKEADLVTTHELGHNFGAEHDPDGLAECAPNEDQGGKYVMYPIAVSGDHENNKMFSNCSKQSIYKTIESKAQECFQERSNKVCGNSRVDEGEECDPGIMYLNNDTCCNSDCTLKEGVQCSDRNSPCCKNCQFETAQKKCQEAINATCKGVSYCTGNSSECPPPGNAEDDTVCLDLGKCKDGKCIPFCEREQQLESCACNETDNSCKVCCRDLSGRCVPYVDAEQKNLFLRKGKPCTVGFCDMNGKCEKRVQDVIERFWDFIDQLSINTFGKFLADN
# T1 sequence (P78536 215-671 limits assumed): as above
Substance,"inhibition of ADAM17 activity ([1]; peptide 8 at concentration of 100 (μM), experiment 2)","inhibition of ADAM17 activity ([1]; peptide 8 at concentration of 200 (μM), experiment 2)","inhibition of ADAM17 activity ([1]; peptide 8 at concentrations up to 50 μM, vs DMSO)","IC50 of inhibition of TACE activity, cell-free fluorogenic peptide substrate assay [2]"
"Ac-YRAHQGE-NH2 [Peptide 8, AAT-related peptide derived from immunoregulatory sites on the surface of AAT]",36%,65%,No significant inhibition,–
"human alpha1-antitrypsin (AAT) (Sigma Aldrich, batch A6150) (from UniProt P01009 25-418)",–,–,–,15.3 µM

# Source: patent US20260028390A1, “ALPHA1-ANTITRYPSIN FOR USE IN THE TREATMENT OF DISEASES OR DISORDERS OF THE NERVOUS SYSTEM SUCH AS CHRONIC INFLAMMATORY DEMYELINATING POLYNEUROPATHY” (Ageronix SA, priority 2022, published 2026)
